Data from publication PMC10100567.
pKd: −log10 of the molar value.

Target: high-affinity IgE receptor FcεRI on the surface of RBL-2H3 cells (rat (endogenous in RBL-2H3))
Assay: Ligand Tracer

Cy5-labeled monoclonal mouse anti-DNP IgE (clone SPE-7) (antibody)
pKd: 8.89
